Assay in all cases: solid phase ELISA, antibody coated, FCGR titrated
Experiment [1] concerns the target T1, low affinity immunoglobulin gamma fc region receptor IIIA (FCGR3A) (CD16a) (human, UniProt P08637 17-208).
T1 construct: Bought recombinant human protein (Santa Cruz Biotechnology); also called FCR3A
Method: (§1) The plate was blocked and recombinant human Fe gamma receptor (FCGR) proteins (Santa Cruz Biotechnology, Santa Cruz, California) titrated by 2-fold dilution with a starting concentration of 5 μg/ml. […] After binding and washing, the FCGR was detected using an appropriate FCGR isoform specific murine monoclonal antibody (1000 ng/ml) and a horseradish peroxidase conjugate goat anti-mouse IgG detector antibody.
(§2) The plate was blocked and recombinant human Fe gamma receptor (FCGR) proteins (Santa Cruz Biotechnology, Santa Cruz, California) titrated onto by 2-fold dilution with a starting concentration of 5 μg/ml.

Experiment [2] deals with T2, low affinity immunoglobulin gamma fc region receptor IIA (FCGR2A) (CD32) (human, UniProt P12318 34-217).
T2 construct: Bought recombinant human protein (Santa Cruz Biotechnology); also called FCGR2A receptor
T2 sequence: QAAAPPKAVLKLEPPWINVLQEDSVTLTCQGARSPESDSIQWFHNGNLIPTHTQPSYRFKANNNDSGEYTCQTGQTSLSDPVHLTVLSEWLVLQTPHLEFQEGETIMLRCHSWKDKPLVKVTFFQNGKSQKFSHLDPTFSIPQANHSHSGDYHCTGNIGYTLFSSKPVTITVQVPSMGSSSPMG
Method: as §1, §2

The target in experiment [3] is T3, high affinity Fc region of IgG receptor IA (FCGR1A) (CD64) (human, UniProt P12314 16-292).
T3 construct: Bought recombinant human protein (Santa Cruz Biotechnology)
Method: as §1, §2

Experiment [4] addresses T4, low affinity immunoglobulin gamma fc region receptor IIIB (FCGR3B) (CD16b) (human, UniProt O75015 17-200).
T4 construct: Bought recombinant human protein (Santa Cruz Biotechnology); also called FCR3B
T4 chain: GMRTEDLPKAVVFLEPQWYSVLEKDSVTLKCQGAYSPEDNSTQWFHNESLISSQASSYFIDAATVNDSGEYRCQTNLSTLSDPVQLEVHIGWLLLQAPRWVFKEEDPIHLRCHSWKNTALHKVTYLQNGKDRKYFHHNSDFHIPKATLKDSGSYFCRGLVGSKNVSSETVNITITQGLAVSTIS
Method: as §1, §2

T1 sequence (P08637 17-208 limits assumed): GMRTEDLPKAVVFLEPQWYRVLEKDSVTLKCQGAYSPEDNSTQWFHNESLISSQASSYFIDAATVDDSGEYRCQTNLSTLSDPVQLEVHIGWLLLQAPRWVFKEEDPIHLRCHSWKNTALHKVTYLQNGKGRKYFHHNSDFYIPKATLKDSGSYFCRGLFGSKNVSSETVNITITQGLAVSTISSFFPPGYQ
T3 sequence (P12314 16-292 limits assumed): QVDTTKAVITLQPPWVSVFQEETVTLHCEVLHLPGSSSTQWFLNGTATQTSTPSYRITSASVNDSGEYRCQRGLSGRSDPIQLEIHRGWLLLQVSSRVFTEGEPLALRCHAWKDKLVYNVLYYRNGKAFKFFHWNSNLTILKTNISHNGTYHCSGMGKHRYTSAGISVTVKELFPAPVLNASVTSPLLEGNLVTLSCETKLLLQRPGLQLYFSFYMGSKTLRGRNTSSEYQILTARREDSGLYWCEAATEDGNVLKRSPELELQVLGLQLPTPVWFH

B1: JB5 antibody (antibody)
heavy: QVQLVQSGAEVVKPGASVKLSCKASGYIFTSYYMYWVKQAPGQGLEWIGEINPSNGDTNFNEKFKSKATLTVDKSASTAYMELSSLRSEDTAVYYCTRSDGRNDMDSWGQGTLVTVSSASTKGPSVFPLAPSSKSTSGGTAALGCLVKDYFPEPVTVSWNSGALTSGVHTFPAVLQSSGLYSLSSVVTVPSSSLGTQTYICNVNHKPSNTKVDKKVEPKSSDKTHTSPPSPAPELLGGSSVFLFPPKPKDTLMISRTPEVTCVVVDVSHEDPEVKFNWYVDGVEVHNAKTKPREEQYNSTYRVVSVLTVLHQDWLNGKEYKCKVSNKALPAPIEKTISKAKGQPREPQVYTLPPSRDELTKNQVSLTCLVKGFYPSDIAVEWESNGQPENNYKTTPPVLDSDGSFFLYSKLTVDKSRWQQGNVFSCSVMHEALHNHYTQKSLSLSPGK
light: DIVLTQSPATLSVSPGERATISCRASQRVSSSTYSYMHWYQQKPGQPPKLLIKYASNLESGVPARFSGSGSGTDFTLTISSVEPEDFATYYCQHSWEIPPTFGGGTKLEIKRTVAAPSVFIFPPSDEQLKSGTASVVCLLNNFYPREAKVQWKVDNALQSGNSQESVTEQDSKDSTYSLSSTLTLSKADYEKHKVYACEVTHQGLSSPVTKSFNRGEC
notes: The text mostly prints the name as 'JBS'; also called JBS (OCR spelling of JB5 in the text); mutant JBS antibody
In the case of B1, the binding result in experiment [1], in experiment [2], in experiment [3] and in experiment [4] was “no binding (tested: FCGR titrated from 5 µg/ml)” throughout.

B2: hu5c8 antibody (antibody, human IgG1)
heavy: not shown
VL: DIVLTQSPATLSVSPGERATISCRASQRVSSSTYSYMHWYQQKPGQPPKLLIKYASNLESGVPARFSGSGSGTDFTLTISSVEPEDFATYYCQHSWEIPPTFGGGTKLEIK
notes: Humanized 5c8, IgG1; no full light chain entry is named for it; also called parental antibody hu5c8; hu5c8-IgG1
Take B2: the binding result in experiment [1] and in experiment [4] was “no binding (tested: FCGR titrated from 5 µg/ml)” throughout.
